B1: Interferon-induced, double-stranded RNA-activated protein kinase (Homo sapiens), P19525 (parent)
chain: MAGDLSAGFFMEELNTYRQKQGVVLKYQELPNSGPPHDRRFTFQVIIDGREFPEGEGRSKKEAKNAAAKLAVEILNKEKKAVSPLLLTTTNSSEGLSMGNYIGLINRIAQKKRLTVNYEQCASGVHGPEGFHYKCKMGQKEYSIGTGSTKQEAKQLAAKLAYLQILSEETSVKSDYLSSGSFATTCESQSNSLVTSTLASESSSEGDFSADTSEINSNSDSLNSSSLLMNGLRNNQRKAKRSLAPRFDLPDMKETKYTVDKRFGMDFKEIELIGSGGFGQVFKAKHRIDGKTYVIKRVKYNNEKAEREVKALAKLDHVNIVHYNGCWDGFDYDPETSDDSLESSDYDPENSKNSSRSKTKCLFIQMEFCDKGTLEQWIEKRRGEKLDKVLALELFEQITKGVDYIHSKKLIHRDLKPSNIFLVDTKQVKIGDFGLVTSLKNDGKRTRSKGTLRYMSPEQISSQDYGKEVDLYALGLILAELLHVCDTAFETSKFFTDLRDGIISDIFDKKEKTLLQKLLSKKPEDRPNTSEILRTLTVWKKSPEKNERHTC
partner: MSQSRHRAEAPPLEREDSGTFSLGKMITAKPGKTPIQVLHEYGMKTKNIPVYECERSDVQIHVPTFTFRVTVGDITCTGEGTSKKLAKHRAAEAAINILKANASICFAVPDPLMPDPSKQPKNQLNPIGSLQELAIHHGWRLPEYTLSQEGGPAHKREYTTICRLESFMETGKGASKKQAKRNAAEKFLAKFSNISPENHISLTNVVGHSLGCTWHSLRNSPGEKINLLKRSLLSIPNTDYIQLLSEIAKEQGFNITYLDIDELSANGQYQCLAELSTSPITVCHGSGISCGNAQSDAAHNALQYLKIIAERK

Variants of: B1
Conditions: with PRKRA

Effect of a mutation on the interaction, disrupting interaction strength:
MAGDLSAGFFMEELNTYRQKQGVVLKYQELPNSGPPHDRRFTFQVIIDGREFPEGEGRSKKEAKNAAAKLAVEILNKEKKAVSPLLLTTTNSSEGLSMGNYIGLINRIAQKKRLTVNYEQCASGVHGPEGFHYKCKMGQKEYSIGTGSTKQEAKQLAAKLAYLQILSEETSVKSDYLSSGSFATTCESQSNSLVTSTLASESSSEGDFSADTSEINSNSDSLNSSSLLMNGLRNNQRKAKRSLAPRFDLPDMKETKYTVDKRFGMDFKEIELIGSGGFGQVFKAKHRIDGKTYVIKRVKYNNEKAEREVKALAKLDHVNIVHYNGCWDGFAYDPETSDDSLESSDYDPENSKNSSRSKTKCLFIQMEFCDKGTLEQWIEKRRGEKLDKVLALELFEQITKGVDYIHSKKLIHRDLKPSNIFLVDTKQVKIGDFGLVTSLKNDGKRTRSKGTLRYMSPEQISSQDYGKEVDLYALGLILAELLHVCDTAFETSKFFTDLRDGIISDIFDKKEKTLLQKLLSKKPEDRPNTSEILRTLTVWKKSPEKNERHTC [D331A]
MAGDLSAGFFMEELNTYRQKQGVVLKYQELPNSGPPHDRRFTFQVIIDGREFPEGEGRSKKEAKNAAAKLAVEILNKEKKAVSPLLLTTTNSSEGLSMGNYIGLINRIAQKKRLTVNYEQCASGVHGPEGFHYKCKMGQKEYSIGTGSTKQEAKQLAAKLAYLQILSEETSVKSDYLSSGSFATTCESQSNSLVTSTLASESSSEGDFSADTSEINSNSDSLNSSSLLMNGLRNNQRKAKRSLAPRFDLPDMKETKYTVDKRFGMDFKEIELIGSGGFGQVFKAKHRIDGKTYVIKRVKYNNEKAEREVKALAKLDHVNIVHYNGCWDGFDYAPETSDDSLESSDYDPENSKNSSRSKTKCLFIQMEFCDKGTLEQWIEKRRGEKLDKVLALELFEQITKGVDYIHSKKLIHRDLKPSNIFLVDTKQVKIGDFGLVTSLKNDGKRTRSKGTLRYMSPEQISSQDYGKEVDLYALGLILAELLHVCDTAFETSKFFTDLRDGIISDIFDKKEKTLLQKLLSKKPEDRPNTSEILRTLTVWKKSPEKNERHTC [D333A]
MAGDLSAGFFMEELNTYRQKQGVVLKYQELPNSGPPHDRRFTFQVIIDGREFPEGEGRSKKEAKNAAAKLAVEILNKEKKAVSPLLLTTTNSSEGLSMGNYIGLINRIAQKKRLTVNYEQCASGVHGPEGFHYKCKMGQKEYSIGTGSTKQEAKQLAAKLAYLQILSEETSVKSDYLSSGSFATTCESQSNSLVTSTLASESSSEGDFSADTSEINSNSDSLNSSSLLMNGLRNNQRKAKRSLAPRFDLPDMKETKYTVDKRFGMDFKEIELIGSGGFGQVFKAKHRIDGKTYVIKRVKYNNEKAEREVKALAKLDHVNIVHYNGCWDAFDYDPETSDDSLESSDYDPENSKNSSRSKTKCLFIQMEFCDKGTLEQWIEKRRGEKLDKVLALELFEQITKGVDYIHSKKLIHRDLKPSNIFLVDTKQVKIGDFGLVTSLKNDGKRTRSKGTLRYMSPEQISSQDYGKEVDLYALGLILAELLHVCDTAFETSKFFTDLRDGIISDIFDKKEKTLLQKLLSKKPEDRPNTSEILRTLTVWKKSPEKNERHTC [G329A]
MAGDLSAGFFMEELNTYRQKQGVVLKYQELPNSGPPHDRRFTFQVIIDGREFPEGEGRSKKEAKNAAAKLAVEILNKEKKAVSPLLLTTTNSSEGLSMGNYIGLINRIAQKKRLTVNYEQCASGVHGPEGFHYKCKMGQKEYSIGTGSTKQEAKQLAAKLAYLQILSEETSVKSDYLSSGSFATTCESQSNSLVTSTLASESSSEGDFSADTSEINSNSDSLNSSSLLMNGLRNNQRKAKRSLAPRFDLPDMKETKYTVDKRFGMDFKEIELIGSGGFGQVFKAKHRIDGKTYVIKRVKYNNEKAEREVKALAKLDHVNIVHYNGCWDGFDADPETSDDSLESSDYDPENSKNSSRSKTKCLFIQMEFCDKGTLEQWIEKRRGEKLDKVLALELFEQITKGVDYIHSKKLIHRDLKPSNIFLVDTKQVKIGDFGLVTSLKNDGKRTRSKGTLRYMSPEQISSQDYGKEVDLYALGLILAELLHVCDTAFETSKFFTDLRDGIISDIFDKKEKTLLQKLLSKKPEDRPNTSEILRTLTVWKKSPEKNERHTC [Y332A]
MAGDLSAGFFMEELNTYRQKQGVVLKYQELPNSGPPHDRRFTFQVIIDGREFPEGEGRSKKEAKNAAAKLAVEILNKEKKAVSPLLLTTTNSSEGLSMGNYIGLINRIAQKKRLTVNYEQCASGVHGPEGFHYKCKMGQKEYSIGTGSTKQEAKQLAAKLAYLQILSEETSVKSDYLSSGSFATTCESQSNSLVTSTLASESSSEGDFSADTSEINSNSDSLNSSSLLMNGLRNNQRKAKRSLAPRFDLPDMKETKYTVDKRFGMDFKEIELIGSGGFGQVFKAKHRIDGKTYVIKRVKYNNEKAEREVKALAKLDHVNIVHYNGCWAGFDYDPETSDDSLESSDYDPENSKNSSRSKTKCLFIQMEFCDKGTLEQWIEKRRGEKLDKVLALELFEQITKGVDYIHSKKLIHRDLKPSNIFLVDTKQVKIGDFGLVTSLKNDGKRTRSKGTLRYMSPEQISSQDYGKEVDLYALGLILAELLHVCDTAFETSKFFTDLRDGIISDIFDKKEKTLLQKLLSKKPEDRPNTSEILRTLTVWKKSPEKNERHTC [D328A]
